Our source for the Kd, Km and Vmax values is publication PMC10227063 (Communications Biology, 2023).

Data set [1] deals with T1, YfkE (Bacillus subtilis, UniProt O34840).
T1 construct: gene chaA
The data set is described as follows: biochemical.

Substrate in data set [2]: O=P(O)(O)O
In words: cells, lysate or membranes. Particulars: outward H+ gradient by NADH, room temperature, labelled compound.

Where [3] appears, read: co-substrate Ca2+, 5x more vesicles than WT.
Setting [4] is: co-substrate Ca2+, residue printed R3 in table but R4 in text.

By Kd is commonly meant the equilibrium constant for the complex coming apart. `O=P(O)(O)O` [inorganic phosphate] registered a dissociation constant (Kd) in data set [1] of 930 ± 360 µM.

B1: YfkE (Bacillus subtilis subsp. subtilis str. 168) (protein)
chain: MNRIFFILVAAGVPLSVIGSLMHWPSAVLFAVYCVTIIALASYMGRATESLSIIAGPRIGGLLNATFGNAVELIISLFALKEGLTGIVLASLTGSVLGNLLLVAGLSFFVGGLKYKRQEFNIHDARHNSGLLIFAIIVAFVIPEVFSVGMGNASKLNLSIGISIIMILLYVAALYFKLVTHRGVYQPNNAAQTEEEEEPEWSGKVATIVLFAATIVVAYISENLVHTFHSVAEQFGWSELFIGVIIVAIVGNAAEHASAIIMAFKNKMDIAVEIAVGSTLQIAMFVAPVLVICSIFFPTSMPLVFTLPELVAMVSAVLLMIAISNDGDSNWFEGATLLAAYVIMAIGFFLL
In general, Km refers to the substrate concentration at which the rate is half of its maximum. Turning to B1, the Michaelis constant (Km) in data set [2] (co-substrate Ca2+ 0.1 mM) is listed as 4.9 mM.

B2: YfkE (Bacillus subtilis subsp. subtilis str. 168; N99A) (protein)
chain: MNRIFFILVAAGVPLSVIGSLMHWPSAVLFAVYCVTIIALASYMGRATESLSIIAGPRIGGLLNATFGNAVELIISLFALKEGLTGIVLASLTGSVLGALLLVAGLSFFVGGLKYKRQEFNIHDARHNSGLLIFAIIVAFVIPEVFSVGMGNASKLNLSIGISIIMILLYVAALYFKLVTHRGVYQPNNAAQTEEEEEPEWSGKVATIVLFAATIVVAYISENLVHTFHSVAEQFGWSELFIGVIIVAIVGNAAEHASAIIMAFKNKMDIAVEIAVGSTLQIAMFVAPVLVICSIFFPTSMPLVFTLPELVAMVSAVLLMIAISNDGDSNWFEGATLLAAYVIMAIGFFLL
A word on the Vmax: it is the top rate of the reaction or transport when substrate is in excess. Consider B2, for which, in data set [2] (setting [3]), the Km amounted to 12.4 mM and the Vmax turned out to be 3.9e-05 µmol/min/mg.

B3: YfkE (Bacillus subtilis subsp. subtilis str. 168; Q281A) (protein)
chain: MNRIFFILVAAGVPLSVIGSLMHWPSAVLFAVYCVTIIALASYMGRATESLSIIAGPRIGGLLNATFGNAVELIISLFALKEGLTGIVLASLTGSVLGNLLLVAGLSFFVGGLKYKRQEFNIHDARHNSGLLIFAIIVAFVIPEVFSVGMGNASKLNLSIGISIIMILLYVAALYFKLVTHRGVYQPNNAAQTEEEEEPEWSGKVATIVLFAATIVVAYISENLVHTFHSVAEQFGWSELFIGVIIVAIVGNAAEHASAIIMAFKNKMDIAVEIAVGSTLAIAMFVAPVLVICSIFFPTSMPLVFTLPELVAMVSAVLLMIAISNDGDSNWFEGATLLAAYVIMAIGFFLL
In the case of B3, in data set [2] (setting [3]), the Km is listed as 29.9 mM and the Vmax was 1.9e-05 µmol/min/mg.

B4: YfkE (Bacillus subtilis subsp. subtilis str. 168; R3A) (protein)
chain: MNAIFFILVAAGVPLSVIGSLMHWPSAVLFAVYCVTIIALASYMGRATESLSIIAGPRIGGLLNATFGNAVELIISLFALKEGLTGIVLASLTGSVLGNLLLVAGLSFFVGGLKYKRQEFNIHDARHNSGLLIFAIIVAFVIPEVFSVGMGNASKLNLSIGISIIMILLYVAALYFKLVTHRGVYQPNNAAQTEEEEEPEWSGKVATIVLFAATIVVAYISENLVHTFHSVAEQFGWSELFIGVIIVAIVGNAAEHASAIIMAFKNKMDIAVEIAVGSTLQIAMFVAPVLVICSIFFPTSMPLVFTLPELVAMVSAVLLMIAISNDGDSNWFEGATLLAAYVIMAIGFFLL
Regarding B4, in data set [2] (setting [4]), the Km was 5.5 mM and the Vmax is 7.5e-05 µmol/min/mg.

B5: YfkE (Bacillus subtilis subsp. subtilis str. 168; H256A) (protein)
chain: MNRIFFILVAAGVPLSVIGSLMHWPSAVLFAVYCVTIIALASYMGRATESLSIIAGPRIGGLLNATFGNAVELIISLFALKEGLTGIVLASLTGSVLGNLLLVAGLSFFVGGLKYKRQEFNIHDARHNSGLLIFAIIVAFVIPEVFSVGMGNASKLNLSIGISIIMILLYVAALYFKLVTHRGVYQPNNAAQTEEEEEPEWSGKVATIVLFAATIVVAYISENLVHTFHSVAEQFGWSELFIGVIIVAIVGNAAEAASAIIMAFKNKMDIAVEIAVGSTLQIAMFVAPVLVICSIFFPTSMPLVFTLPELVAMVSAVLLMIAISNDGDSNWFEGATLLAAYVIMAIGFFLL
For B5, in data set [2] (setting [3]), the Km was determined as 34.2 mM and the Vmax stood at 5.1e-05 µmol/min/mg.

B6: YfkE (Bacillus subtilis subsp. subtilis str. 168; N252A) (protein)
chain: MNRIFFILVAAGVPLSVIGSLMHWPSAVLFAVYCVTIIALASYMGRATESLSIIAGPRIGGLLNATFGNAVELIISLFALKEGLTGIVLASLTGSVLGNLLLVAGLSFFVGGLKYKRQEFNIHDARHNSGLLIFAIIVAFVIPEVFSVGMGNASKLNLSIGISIIMILLYVAALYFKLVTHRGVYQPNNAAQTEEEEEPEWSGKVATIVLFAATIVVAYISENLVHTFHSVAEQFGWSELFIGVIIVAIVGAAAEHASAIIMAFKNKMDIAVEIAVGSTLQIAMFVAPVLVICSIFFPTSMPLVFTLPELVAMVSAVLLMIAISNDGDSNWFEGATLLAAYVIMAIGFFLL
For the molecule B6, in data set [2] (setting [3]), the Km is on record as 8.2 mM and the Vmax was 1.9e-05 µmol/min/mg.
